B1: Sestrin-2 (Homo sapiens), P58004 (parent)
chain: MIVADSECRAELKDYLRFAPGGVGDSGPGEEQRESRARRGPRGPSAFIPVEEVLREGAESLEQHLGLEALMSSGRVDNLAVVMGLHPDYFTSFWRLHYLLLHTDGPLASSWRHYIAIMAAARHQCSYLVGSHMAEFLQTGGDPEWLLGLHRAPEKLRKLSEINKLLAHRPWLITKEHIQALLKTGEHTWSLAELIQALVLLTHCHSLSSFVFGCGILPEGDADGSPAPQAPTPPSEQSSPPSRDPLNNSGGFESARDVEALMERMQQLQESLLRDEGTSQEEMESRFELEKSESLLVTPSADILEPSPHPDMLCFVEDPTFGYEDFTRRGAQAPPTFRAQDYTWEDHGYSLIQRLYPEGGQLLDEKFQAAYSLTYNTIAMHSGVDTSVLRRAIWNYIHCVFGIRYDDYDYGEVNQLLERNLKVYIKTVACYPEKTTRRMYNLFWRHFRHSEKVHVNLLLLEARMQAALLYALRAITRYMT
partner: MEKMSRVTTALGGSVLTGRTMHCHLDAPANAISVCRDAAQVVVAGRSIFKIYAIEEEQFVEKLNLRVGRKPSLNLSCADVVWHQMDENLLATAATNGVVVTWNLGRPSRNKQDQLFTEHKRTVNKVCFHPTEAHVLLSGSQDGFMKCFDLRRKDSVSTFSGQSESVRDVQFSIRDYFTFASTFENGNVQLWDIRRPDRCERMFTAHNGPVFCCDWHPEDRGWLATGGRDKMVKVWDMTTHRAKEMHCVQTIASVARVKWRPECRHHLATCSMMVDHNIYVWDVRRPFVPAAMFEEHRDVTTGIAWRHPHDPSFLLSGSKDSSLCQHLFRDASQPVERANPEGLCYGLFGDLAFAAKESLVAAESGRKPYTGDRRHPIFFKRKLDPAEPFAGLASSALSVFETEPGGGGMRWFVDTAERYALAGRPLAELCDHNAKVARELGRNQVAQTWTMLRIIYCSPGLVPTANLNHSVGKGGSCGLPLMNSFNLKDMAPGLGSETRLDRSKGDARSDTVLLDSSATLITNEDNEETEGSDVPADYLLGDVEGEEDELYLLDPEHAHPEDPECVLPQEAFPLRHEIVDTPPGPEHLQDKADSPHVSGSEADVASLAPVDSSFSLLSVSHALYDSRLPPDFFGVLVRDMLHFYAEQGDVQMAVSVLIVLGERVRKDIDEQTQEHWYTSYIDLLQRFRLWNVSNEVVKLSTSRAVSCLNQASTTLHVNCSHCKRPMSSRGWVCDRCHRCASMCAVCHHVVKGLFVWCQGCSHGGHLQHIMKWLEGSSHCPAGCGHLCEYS

Variants of: B1
Conditions: with wdr24_human WDR24, Q96S15

effect of a mutation on the interaction | Variant
disrupting interaction strength | D406A;D407A
